Target: T1, Myc-IQGAP3 (human, UniProt Q86VI3 2-1631)
T1 construct: human IQGAP3 from a commercial cDNA (Dharmacon); full length IQGAP3 (corresponding to amino acids 2-1631) in pcDNA3; also called overexpressed IQGAP3; IQ3; source: HEK293, transfected, in lysate
Experiment: co-IP; HEK293 cells transfected with Myc-IQGAP3 alone or with Myc-Cdc42 (wt, Q61L or T17N); anti-IQGAP3 rabbit polyclonal antibody and Protein A-Sepharose 4 h at 4 C; lysis buffer 150 mM NaCl, 1% Triton X-100, 200 mM Tris-HCl pH 7.4; Western blot
Conditions: partners not purified

T1 sequence (Q86VI3 2-1631): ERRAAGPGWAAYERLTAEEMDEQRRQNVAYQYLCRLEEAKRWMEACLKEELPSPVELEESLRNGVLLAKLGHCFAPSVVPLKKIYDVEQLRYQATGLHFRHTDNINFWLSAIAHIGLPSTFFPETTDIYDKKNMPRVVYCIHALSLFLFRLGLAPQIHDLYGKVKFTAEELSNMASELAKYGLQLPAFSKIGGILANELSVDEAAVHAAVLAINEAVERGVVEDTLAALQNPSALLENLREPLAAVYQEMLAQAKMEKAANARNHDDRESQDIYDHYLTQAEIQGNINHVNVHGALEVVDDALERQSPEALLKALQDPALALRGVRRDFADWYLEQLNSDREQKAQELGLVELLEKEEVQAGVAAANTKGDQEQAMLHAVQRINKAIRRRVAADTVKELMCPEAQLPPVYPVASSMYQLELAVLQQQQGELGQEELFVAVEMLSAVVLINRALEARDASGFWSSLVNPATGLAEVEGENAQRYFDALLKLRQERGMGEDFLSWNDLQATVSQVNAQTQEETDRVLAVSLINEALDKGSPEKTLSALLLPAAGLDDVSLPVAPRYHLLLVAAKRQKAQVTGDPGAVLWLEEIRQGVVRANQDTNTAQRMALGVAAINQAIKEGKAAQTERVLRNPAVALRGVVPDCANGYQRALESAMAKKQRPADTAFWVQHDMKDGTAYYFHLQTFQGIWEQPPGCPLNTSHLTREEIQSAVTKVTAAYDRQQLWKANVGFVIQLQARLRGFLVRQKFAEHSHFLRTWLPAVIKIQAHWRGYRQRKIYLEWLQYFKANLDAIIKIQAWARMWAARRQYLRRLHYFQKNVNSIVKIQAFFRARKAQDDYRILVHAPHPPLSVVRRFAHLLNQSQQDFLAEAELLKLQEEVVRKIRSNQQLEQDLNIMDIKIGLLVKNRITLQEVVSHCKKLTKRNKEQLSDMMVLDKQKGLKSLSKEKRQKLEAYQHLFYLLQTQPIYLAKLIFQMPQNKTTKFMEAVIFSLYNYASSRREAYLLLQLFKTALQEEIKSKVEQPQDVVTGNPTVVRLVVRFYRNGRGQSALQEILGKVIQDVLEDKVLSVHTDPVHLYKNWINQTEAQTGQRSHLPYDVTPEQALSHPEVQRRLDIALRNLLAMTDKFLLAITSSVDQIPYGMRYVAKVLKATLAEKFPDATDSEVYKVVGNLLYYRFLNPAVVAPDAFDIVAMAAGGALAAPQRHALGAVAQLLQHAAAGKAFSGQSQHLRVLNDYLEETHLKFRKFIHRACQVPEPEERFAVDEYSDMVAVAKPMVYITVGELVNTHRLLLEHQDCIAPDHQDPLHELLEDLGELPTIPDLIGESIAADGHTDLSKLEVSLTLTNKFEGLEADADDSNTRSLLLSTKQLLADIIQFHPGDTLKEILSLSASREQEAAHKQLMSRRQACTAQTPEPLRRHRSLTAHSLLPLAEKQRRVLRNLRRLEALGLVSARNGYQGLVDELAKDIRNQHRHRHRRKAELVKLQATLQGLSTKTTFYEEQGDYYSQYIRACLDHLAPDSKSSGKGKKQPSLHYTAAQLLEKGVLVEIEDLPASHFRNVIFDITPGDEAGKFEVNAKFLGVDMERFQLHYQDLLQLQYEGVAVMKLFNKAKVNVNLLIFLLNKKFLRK

B1: Myc-Cdc42 constitutively active (Q61L) (natural protein)
chain: not shown
notes: Cdc42 Q61L cut from pGEX-2T-Cdc42-Q61L and inserted into pcDNA3; also called Myc-Cdc42-Q61L; Cdc42 Q61L; source: HEK293, transfected, in lysate
For B1, which “fold amount co-immunoprecipitated against wild type Cdc42” value is on record?
Its value is 1.7 fold.

— paper PMC6667474 (Scientific Reports, 2019)
